The results in this text go back to patent publication US20250355001A1, “METHOD FOR DETECTING A TAU PROTEIN FRAGMENT IN A SAMPLE” (GTINVENT LIMITED, priority 2022, published 2025).

For one series, the target named is dGAE aggregates (Homo sapiens, UniProt P10636). Description: Sandwich ELISA on SDS/Triton X-100 treated dGAE aggregates. Format: binding. To be noted: S1D12 mAb capture, S1G2 scAb detection; SDS + Triton X-100. How it is done: We have noticed Sodium dodecyl sulphate (SDS) can break apart dGA/dGAE aggregates and separate them into smaller fragments by performing an SDS-PAGE. This has been replicated and tested using an ELISA as described below.
Sequence of dGAE aggregates (P10636 614-708): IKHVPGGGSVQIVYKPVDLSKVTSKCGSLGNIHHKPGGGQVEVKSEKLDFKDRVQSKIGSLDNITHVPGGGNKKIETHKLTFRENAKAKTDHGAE
For aggregation, 1000 μL 100 μM dGAE+10 μL 10 mM DTT was added to a ‘LoBind’ microfuge tubes and agitated at 700 RPM/37° C. for 24 hours. Resulting sample centrifuged at 17,000×g/4° C. for 60 min and supernatant discarded to remove left over monomer. Pellet resuspended in half the original volume for future experiments and hereafter referred to as ‘aggregates’. 1 μl of aggregates was added to 1 ml of PBS and SDS was added to a final concentration of 1% (w/v). This was left to incubate on lab bench for 1 h with gentle agitation every 15 minutes. In order to neutralize the SDS effect on ELISA, Triton X-100 added to a final concentration of 3% (v/v) and mixed gently by pipetting to prevent any bubble formation. 200 μl added of this mix was to the first well of an ELISA plate coated with 1 μg/ml S1D12 mAb and blocked with 2% MPBS. Similarly aggregates treated with only SDS or Triton X-100, untreated aggregates, dGAE monomers treated with only SDS or SDS+Titon X-100 were also added to designated wells as controls. All samples were then double diluted across the plate in final volumes of 100 μl. The final column was left with no protein to act as a blank. This was allowed to stand at room temperature for 1 hour followed by the addition of detection scAb-S1G2 at 10 μg/ml. Anti-HuCk HRP labelled secondary antibody was added as described previously and ELISA data generated was represented using the graph below.
(In an ELISA, binding on a coated surface is turned into a signal by an enzyme label.)

The subject of series [1] is core tau in plasma of wildtype, Line 1 and Line 66 mice. Description: S1D12 mAb 6-week repeat-dose mouse study; plasma tau by CA4-S1G2 Simoa. Format: in vivo. To be noted: for plasma tau (CA4-S1G2 Simoa): 30 mg/kg i.p. once per week, six weeks. As to the method: A total of 12 wildtype, 12 Line 1 and 12 Line 66 female mice were used in this study-Line 1 and Line 66 are transgenic mouse models of tauopathy ( Melis et al., 2015). Animals were 2 months old at the beginning of the study. Mice of each genotype were injected intraperitoneally (i.p.) with either vehicle or S1D12 mAb (30 mg/kg), once per week, for six consecutive weeks.
Seven days post final dose, cardiac puncture blood sampling was performed. mice were anaesthetised using an overdose of sodium pentobarbital (i.p.) and blood was collected via cardiac puncture through a Plastipak syringe pre-rinsed with heparinised saline (10 U/mL) and transferred into a plastic vial containing lithium heparin anticoagulant. Blood samples were centrifuged to obtain plasma at 2,000×g for 5 min at 6° C.
A three-step assay was performed and analysed by following the previously described plasma screening methods using CA4 antibody capture beads, S1G2 detector (10 ng/ml) and the plasma samples added in 1:8 dilution.

Series [2] has as its system hT40, dGA, dGAE and truncated tau fragments. Description: Binding ELISA / epitope mapping of anti-tau scAbs with truncated tau proteins and 13mer peptides. Details: species or system human. Conditions: for cross-reactivity using hT40, dGA and dGAE antigens: ELISA, 'E' group scAbs; for Tau proteins/fragments with positive scAb reactivity: Table 15, binding ELISA, residue numbers of hT40. In outline:
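Serially double-diluted scAbs were applied to 2% MPBS-blocked wells carrying either 1 μg/ml full-length or truncated tau, or biotinylated 13mer peptides (1 μg/ml) captured on 5 μg/ml streptavidin. Absorbance after HRP anti-human C kappa secondary gave the binding signal.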

The next series addresses dGAE (SEQ ID NO: 4) (Homo sapiens, UniProt P10636). Description: Biacore X100 SPR kinetics of scAbs for dGAE. To be noted: Table 24, scAb, dGAE analyte; for Kd: dissociation rate. In kind it is binding. How it is done: Surface plasmon resonance (SPR) is widely regarded as the gold standard for real time measurement of protein-protein interactions such as antibody binding. All SPR experiments were carried out using a Biacore X100 machine and HBS EP+ running buffer (GE Healthcare). A ‘capture’ method was followed for affinity measurements, where an anti-human constant kappa chain (HuCk) antibody was conjugated to the surface of a CM5 sensor chip using an amine coupling kit and scAb molecules were immobilised via their HuCk domain. Amine coupling is a very common approach for immobilising the ligand to the chip surface. The chip surface has a dextran matrix derivatised with carboxyl groups, which after activation with N-hydroxysuccinimide (NHS) and 1-ethyl-3-(3-dimethylaminopropyl) carbodiimide (EDC), form reactive succinimide esters which allows the covalent capturing of the ligand via any available primary amine groups (e.g. Lysine) on the ligand (in this case anti-HuCk antibody). The capture antibody was diluted 1/100 in 10 mM Sodium acetate buffer pH 5.0 and passed over the activated chip surface for a period of at least 420 s. Final ligand immobilisation levels over 12,000 RU were deemed to be satisfactory.
Following immobilisation, the level of each scAb to be captured was identified using the standard SPR equation with a theoretical RMax of 100 RU. Analyte MW refers to the molecular weight of hT40 or dGA/dGAE molecules, while ligand MW refers to the molecular weight of the scAbs tested. RL is the desired capture level and S refers to the stoichiometric ratio:
The scAb to be tested was added only to flow cell 2 so that flow cell 1 could act as a control to subtract any interaction with the analyte and the chip surface. Both single and multi-cycle runs were utilised using wizards developed in the Biacore X100 control software which are both accepted methods of kinetic analysis (Karlsson, R., et al. Analyzing a kinetic titration series using affinity biosensors (2006) Analytical Biochemistry 349:136-47). The multi-cycle protocol was as follows-Three start-up cycles composed of an initial capture, to the desired level, of the scAb to be tested was performed followed by a 30 s injection of glycine buffer pH 2.0 after each cycle to regenerate the chip surface. The regeneration step removed any captured scAb whilst leaving the capture antibody intact and able to repeat the capture for the next cycle. […]
The single cycle kinetics protocol was similar and utilised the same level of scAb capture. […] Binding responses were analysed in Biacore X100 evaluation software and data fitted to a 1:1 binding model to obtain kinetic and affinity characterisation.

Series [3] concerns 13 aa tau peptides of hT40. Kind of series: Alanine scanning mutagenesis (ASM) peptide ELISA. In kind it is binding, human. Conditions: alanine substituted peptides; numbering SEQ ID NO: 1. How it is done:
Briefly, 5 μg/ml streptavidin (Thermo Fisher) was adsorbed to Nunc 96-well MaxiSorp plates and following incubation at 37° C. for 1 h, the plates were washed as normal and blocked with 2% MPBS. N-terminally biotinylated peptides (Prolmmune Ltd) were added to the plates and incubated for 1 h at 37° C. Subsequently, test scAbs at starting concentrations of 100-500 nM was added and double diluted across the plate for each peptide and incubated for 1 h at 37° C. Rest of the ELISA was conducted as described above and the plates were read at absorbance 450 nm. Immunoreactivity of the scAb of interest was quantified as the % of scAb was bound for each peptide at a chosen concentration (FIG. 15-20).

The target in series [4] is T1, hT40 (T441, SEQ ID NO: 1) (Homo sapiens, UniProt P10636).
T1 construct: Full length tau (hT40)
T1 sequence (P10636 1-441 isoform P10636-8): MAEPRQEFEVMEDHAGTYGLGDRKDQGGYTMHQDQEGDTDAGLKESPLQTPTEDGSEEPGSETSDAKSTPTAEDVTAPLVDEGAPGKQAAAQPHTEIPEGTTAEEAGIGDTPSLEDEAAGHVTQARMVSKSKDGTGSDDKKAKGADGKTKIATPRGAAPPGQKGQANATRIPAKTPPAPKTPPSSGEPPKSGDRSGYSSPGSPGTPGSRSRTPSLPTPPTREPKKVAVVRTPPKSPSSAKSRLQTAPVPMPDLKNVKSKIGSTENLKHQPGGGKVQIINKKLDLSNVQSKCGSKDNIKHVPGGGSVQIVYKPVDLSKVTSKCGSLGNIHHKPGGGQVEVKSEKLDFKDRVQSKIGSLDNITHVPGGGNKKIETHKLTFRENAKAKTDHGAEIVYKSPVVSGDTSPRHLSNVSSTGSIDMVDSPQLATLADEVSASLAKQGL
Kind of series: Biacore X100 SPR kinetics of scAbs for hT40. In kind it is binding. Conditions: scAb format. In outline:
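Captured scAb on anti-HuCk CM5 surface (flow cell 1 as reference) in HBS-EP+, capture set for theoretical RMax 100 RU; hT40 injected multi-cycle (0.15625–100 nM) or single-cycle (6.25–100 nM), 120 s association, 420 s dissociation, glycine pH 2.0 regeneration. Kinetics and affinity from 1:1 binding model fit.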
For orientation: In SPR one partner is held on a chip, and binding of the other changes the refractive index at the surface.

Sequence of dGAE (SEQ ID NO: 4) (P10636 614-708): as the sequence (P10636 614-708) above

B1: S1D12 mAb: S1D12 reformatted; heavy chain SEQ ID NO: 445, light chain 446 (antibody)
heavy: QVQLQESGPSLVKPSQTLSLTCTVSGFSLNNNAVGWVRQAPGKVPESLVGCSSDGTCYYNSALKSRLDITRDTSKNQISLSLSSVTTDDAAVYYCTRGHYSIYGYDYLGTIDYWGPGLLVTVSSAKTTAPSVYPLAPVCGDTTGSSVTLGCLVKGYFPEPVTLTWNSGSLSSGVHTFPAVLQSDLYTLSSSVTVTSSTWPSQSITCNVAHPASSTKVDKKIEPRGPTIKPCPPCKCPAPNLLGGPSVFIFPPKIKDVLMISLSPIVTCVVVDVSEDDPDVQISWFVNNVEVHTAQTQTHREDYNSTLRVVSALPIQHQDWMSGKEFKCKVNNKDLPAPIERTISKPKGSVRAPQVYVLPPPEEEMTKKQVTLTCMVTDFMPEDIYVEWTNNGKTELNYKNTEPVLDSDGSYFMYSKLRVEKKNWVERNSYSCSVVHEGLHNHHTTKSFSRTPGK
light: QAVLTQPSSVSGSLGQRVSITCSGSSSNVGGGNSVGWYQHLPGSGLKTIIYDTNSRPSGVPDRFSGSRSGNTATLTINSLQAEDEGDYYCVTGDSTTHDDLVGSGTRLTVLGGQPKSSPSVTLFPPSSEELETNKATLVCTITDFYPGVVTVDWKVDGTPVTQGMETTQPSKQSNNKYMASSYLTLTARAWERHSSYSCQVTHEGHTVEKSLSRADCS
modifications: S1D12 mAB Heavy Chain; S1D12 mAB Light Chain
B1: the dGAE aggregates detectable result with dGAE aggregates is given as “approximately 2 ng/ml”. Moreover, the results for the “increase of core tau in plasma vs vehicle” value in series [1] (L1 mice), in series [1] (L66 mice) and in series [1] (wild-type mice) were “more than 100 fold”, “more than a threefold increase” and “less than a two-fold increase”, respectively. Besides, the “plasma tau (CA4-S1G2 Simoa)” value in series [1] (L1 mice) is more than 100 ng/mL; in series [1] (L66+/+ mice, mean (SEM)), 3.52 (0.20) ng/ml; in series [1] (wildtype mice, mean (SEM)) it was 3.57 (0.22) ng/ml.

B2: E1E8: dGAE (391E) specific clone, Table 9; SEQ ID NO: 250 (protein)
scFv: QVQLQESGPSLVKPSQTLSLTCTVSGFSLTDWGVAWVRQAPGKALEWLGTMRSGGTTDDNPALKSRLSITRDTSKSQVSLSLSSVTTEDMAMYYCARGYLSGVHYAWGRGLLVTVSSEGKSSGASGESKVDDQAVLTQPSSVSGSLGQSVSITCSGSSSNVGDGRYVSWFQQVPGSAPKLLIYDTTSRASGVPDRFSGSRSGNTATLIITSLQAEDEADYYCASIDSGNNLLFGSGTRLTVLG
modifications: E1E8 amino acid sequence
B2: in series [2], the “cross-reactivity using hT40, dGA and dGAE antigens” value was “specific dGAE binding”; the “Tau proteins/fragments with positive scAb reactivity” value is 297-391 (dGAE). In the series with dGAE (SEQ ID NO: 4), the “ka” value was 153500 M⁻¹ s⁻¹ and the “Kd” value was 0.0014 s⁻¹.

B3: E2E8: dGAE (391E) specific clone, Table 9; SEQ ID NO: 248 (protein)
scFv: QVQLQESGPSLVKPSQTLSLTCTVSGFSLTDRGVAWVRQAPGKALEWVGTMRSGGTIDYNPALKSRLSITRDTSKSQVFLSLSSVTTEDMAMYYCARGYLSGDRYAWGRGLLVTVSSEGKSSGASGESKVDDQAVLTQPSSVSKSLGQSVSIACSGSRSDIGYGNYVSWFQQIPGSAPKLLIYDTNTRASGVPDRFSGARSGNTATLTINSLQAEDEADYYCANIDSSRSHLFGSGTRLTVLG
modifications: E2E8 amino acid sequence
B3: in series [2], the “cross-reactivity using hT40, dGA and dGAE antigens” value is reported as “specific dGAE binding”; the “Tau proteins/fragments with positive scAb reactivity” value is 297-391 (dGAE). In series [2] (Table 26 summary, top scAbs, residues of hT40), this molecule showed an Epitope of 391. For the same molecule, the “Detection scAb (Epitope)” value in series [2] (Table 28 (LoD table), residues of hT40) was “E2E8 (E dependant)”. For the same molecule, the critical binding residues in series [3] was 391 (E). In addition, the “T441 binding in SPR (result in words)” value in series [4] (Table 23) was “No T441 binding”. In series [4] (Table 26 summary), the “hT40 binding (result in words)” value was “No hT40 binding”. Moreover, in the series with dGAE (SEQ ID NO: 4), the “ka” value is 477000 M⁻¹ s⁻¹ and the “Kd” value worked out at 0.0001915 s⁻¹.
